This passage reports Binding AUC and Blocking % results from patent US12281155.

Assay [1] addresses T1, recombinant SARS-CoV-2 Spike RBD domain, Wuhan (SARS-CoV-2). In words: ELISA on coated RBD. The note with it: remark: other sources report otherwise. In general terms: An ELISA detects its analyte on a solid surface through an enzyme-linked reagent.
For assay [2], the target named is T1, recombinant SARS-CoV-2 Spike RBD …. Nature of the assay: competition ELISA, blocking of RBD binding to ACE2 ectodomain. Particulars: remark: other sources report otherwise.

B1: SPK002 antibody (parental version Cv2.3194 described in WO 2022/228827) (antibody, V domains shown)
VH: EVQLVESGGGLIQPGGSLRLSCAASGITVTSNYMSWVRQAPGKGLEWVSVIYPGGSTFYADSVKGRFTISRDNSKNTLYLQMNSLRAEDTAVYYCARDLVVYGMDVWGQGTTVTVS
VL: EIVLTQSPGTLSLSPGERATLSCRASQSVSSSYLAWYQQKPGQAPRLLIYGASSRATGIPGRFSGSGSGTDFTLTISRLEPEDFAIYYCQQGVTFGGGTKVEIK
For B1, the Binding AUC in assay [1] worked out at 34. Also, the Blocking % in assay [2] worked out at 88%.
